US20110135573A1, “METALLOPROTEINASE 9 AND METALLOPROTEINASE 2 BINDING PROTEINS” (DYAX CORP., priority 2009, published 2011)

Assays:
MMP-9 [1] = molecular target: T1, MMP-9 (Homo sapiens, UniProt P14780); assay: Binding of non-inhibiting Fabs to MMP-9 (apparent KD, dissociation t1/2, TIMP-1 competition); details: Fab
Target sequence in this assay (P14780 94-707): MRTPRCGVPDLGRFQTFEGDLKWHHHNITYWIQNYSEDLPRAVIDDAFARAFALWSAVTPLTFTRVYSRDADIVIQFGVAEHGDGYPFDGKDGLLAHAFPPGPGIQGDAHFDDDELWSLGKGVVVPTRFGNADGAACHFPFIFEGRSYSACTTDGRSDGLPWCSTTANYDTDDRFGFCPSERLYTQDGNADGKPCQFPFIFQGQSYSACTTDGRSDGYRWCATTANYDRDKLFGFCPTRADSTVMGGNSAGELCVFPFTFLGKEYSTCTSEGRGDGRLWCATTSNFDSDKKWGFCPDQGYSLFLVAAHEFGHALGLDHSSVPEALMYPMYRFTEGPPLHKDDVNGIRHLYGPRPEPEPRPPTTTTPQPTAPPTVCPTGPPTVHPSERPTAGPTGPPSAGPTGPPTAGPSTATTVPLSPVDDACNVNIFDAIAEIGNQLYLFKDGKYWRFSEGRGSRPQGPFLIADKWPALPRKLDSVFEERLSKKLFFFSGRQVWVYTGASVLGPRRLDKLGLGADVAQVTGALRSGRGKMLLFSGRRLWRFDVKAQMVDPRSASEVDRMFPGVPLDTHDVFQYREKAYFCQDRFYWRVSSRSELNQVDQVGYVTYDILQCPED

MMP-9 [2] = molecular target: T1, MMP-9; assay: Initial screen of sFabs/IgG1s for inhibition of MMP-9 at 1 μM; type: biochemical
Protocol: After sequencing analysis, the phage display were converted into sFabs and then into IgG1s. Their ability to inhibit MMP-9 and other MMPs (1, 3, 7, 8, 9, 10, 12, 13, 14) was determined by usual means. Compounds were initially screened at 1 μM against MMP-9 and those compounds that inhibited MMP-9 >80% were subjected to additional screens against purified recombinant human MMP-2 (APMA activated enzyme) and other MMPs. For these additional screens, an IC50 value was determined. Ki values and specificities of the inhibitors were determined as described below.
Target sequence in this assay (P14780 94-707): as above

human MMP-2 = molecular target: T2, human MMP-2 (Homo sapiens, UniProt P08253); assay: Enzyme inhibition assay (single point inhibition, IC50/Ki,app), substrate M-2350; type: biochemical; details: light chain shuffled antibodies
T2 construct: purchased Biomol SE-237
Protocol: (§1) 343 unique sFabs from the anti-MMP-9/-2 M237-D02 affinity maturation campaign were discovered by phage display, produced in small scale (6 mL cultures in deep 24-well plates) and screened to select inhibitors with sub-nanomolar potency against the human enzymes and at least single-digit nanomolar potency toward the mouse orthologues. […] Isolates which appeared potent against both human and mouse MMP-2 were then subjected to IC50 analysis against hMMP-9. Sub-nanomolar inhibitors of hMMP-9 were further tested by IC50 analysis against mMMP-9 and h/m MMP-2, if sufficient small-scale sFab material was available. Thirteen potential h/m MMP-9/-2 sFab inhibitors were then produced in medium scale (250 mL cultures in flasks) and retested for h/m MMP-9 and h/m MMP-2 inhibition. Five potential lead candidates were reformatted as IgGs and retested in enzyme inhibition assays.
(§2) Human MMP-9 (Biomol #SE-244), mouse MMP-9 (R&D Systems #909-MM-010), human MMP-2 (Biomol #SE-237) and mouse MMP-2 (R&D Systems #924-MP-010) were tested at final concentrations of 1 nM, 0.25-0.4 nM, 2.5 nM and 0.2 nM, respectively. Target enzymes were incubated with inhibitor for two hours at 30° C. in reaction buffer (50 mM Tris-HCl pH 7.5, 150 mM NaCl, 5 mM CaCl2, 0.05% Brij-35) in a total volume of 90 μL using a white 96 well plate (Costar). Reactions contained 5 μL of small-scale sFab stock solution (average concentration of 500 nM) for single point inhibition analysis or a concentration series of sFab/IgG for IC50 Ki,app determinations. Commercially available anti-MMP-9 antibodies (Millipore mAb 13415 and R&D Systems polyclonal IgG #AB911) were tested by IC50 analyses using 100 nM and 500 nM as the highest inhibitor concentrations, respectively. An anti-MMP-2 antibody (R&D Systems polyclonal IgG #AF902) was similarly tested with 200 nM as the highest inhibitor concentration. Reactions were initiated by the addition of 10 μL of a 10× concentrated stock of substrate, Mca-Lys-Pro-Leu-Gly-Leu-Dap(Dnp)-Ala-Arg-NH2, (Bachem M-2350), at final concentration of 10 μM and monitored at 30° C. in a Molecular Devices' Gemini fluorescence plate reader. The excitation and emission wavelengths were set at 328 nm and 393 nm, respectively. Kinetic data were acquired by the increase in fluorescence, and initial rates for each condition were plotted against the total inhibitor concentration. Reactions were performed in duplicates and all data replicates were plotted in a single graph and fit to the following equation^1:
(§3) Where A=initial rate observed at each inhibitor concentration; Ao=initial rate observed in the absence of inhibitor; Ainh=initial rate observed for the enzyme inhibitor complex; Inh=concentration of inhibitor; E=total enzyme concentration (treated as a floated parameter); and Ki,app=apparent equilibrium inhibition constant.

mouse MMP-2 = molecular target: T3, mouse MMP-2 (Mus musculus, UniProt P33434); assay: as above; type: biochemical; details: light chain shuffled antibodies
T3 construct: purchased R&D Systems 924-MP-010
Protocol: as §1, §2, §3

Mouse MMP-9 = molecular target: T4, Mouse MMP-9 (Mus musculus, UniProt P41245); assay: as above; type: biochemical; details: light chain shuffled antibodies
T4 construct: purchased R&D Systems 909-MM (909-MM-010)
Protocol: as §1, §2, §3

MMP-9 [3] = molecular target: T1, MMP-9; assay: as above; type: biochemical; set-up: Human MMP-9 catalytic domain (BIOMOL, SE-244); purchased BIOMOL SE-244; details: light chain shuffled antibodies
Protocol: as §1
as §2, with “Commercially available anti-MMP-9 antibodies (Millipore mAb 13415 and R&D Systems polyclonal IgG #AB911) were tested by IC50 analyses using 100 nM and 500 nM as the highest inhibitor concentrations, respectively. An anti-MMP-2 antibody (R&D Systems polyclonal IgG #AF902) was similarly tested with 200 nM as the highest inhibitor concentration.” left out, “The excitation and emission wavelengths were set at 328 nm and 393 nm, respectively.” left out, “Reactions were performed in duplicates and all data replicates were plotted in a single graph and fit to the following equation^1:” left out
Target sequence in this assay (P14780 107-444 limits assumed): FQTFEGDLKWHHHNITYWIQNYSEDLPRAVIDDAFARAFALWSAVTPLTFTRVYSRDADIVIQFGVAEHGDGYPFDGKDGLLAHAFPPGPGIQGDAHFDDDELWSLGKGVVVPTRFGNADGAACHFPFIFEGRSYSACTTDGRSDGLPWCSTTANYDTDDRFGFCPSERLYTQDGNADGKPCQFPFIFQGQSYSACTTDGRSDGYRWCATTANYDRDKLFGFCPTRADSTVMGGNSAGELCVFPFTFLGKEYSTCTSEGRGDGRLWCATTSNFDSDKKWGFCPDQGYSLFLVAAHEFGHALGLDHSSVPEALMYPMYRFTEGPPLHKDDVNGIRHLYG

human TIMP-1 = molecular target: T5, human TIMP-1 (Homo sapiens, UniProt P01033); assay: Biacore 3000 binding to antibody-coated CM5 chip; details: Direct capture; 25° C.
T5 construct: purchased R&D Systems 970-TM
Protocol: (§4) Experiments were performed at 25° C. with the help of a Biacore 3000 instrument. The MMP-9 binding protein (M0166F10) and the M0237-D02 antibody were coated to a CM5 chip either via standard amine coupling or using an anti-Fc antibody surface. Then either the active, human MMP-9 catalytic domain (BIOMOL, SE-244), the human pro-MMP-9 (R&D, 911-MP), the human TIMP-1 (R&D, 970-TM) or a h-MMP-9/h-TIMP-1 complex were flowed over the antibody surfaces, and binding was recorded.

human pro-MMP-9 = molecular target: T6, human pro-MMP-9 (Homo sapiens, UniProt P14780); assay: Biacore 3000 binding to antibody-coated CM5 chip; details: Direct capture, 25° C.
T6 construct: the human pro-MMP-9 (R&D, 911-MP); purchased R&D Systems 911-MP
Protocol: as §4

[4] = molecular target: T7, Human MMP-9 catalytic domain (Homo sapiens, UniProt P14780); assay: Biacore 3000 binding to antibody-coated CM5 chip; details: 25° C.
T7 construct: Human MMP-9 catalytic domain (BIOMOL, SE-244); purchased BIOMOL SE-244
Protocol: as §4

h-MMP-9/h-TIMP-1 complex = h-MMP-9/h-TIMP-1 complex (Homo sapiens, UniProt P14780); assay: Biacore 3000 binding to antibody-coated CM5 chip; details: Direct capture, 25° C.
Protocol: The non competitive inhibition model implies that the ternary complex enzyme-substrate-inhibitor can form. It is however possible that this complex cannot form with bigger substrates, in which case the antibody would behave as a competitive inhibitor. In order to address this issue, the ability of M0237-D02 antibody to bind to the h-MMP-9 when the enzyme is complexed to its natural inhibitor h-TIMP-1 was determined. The reasoning is that if the antibody cannot bind to the h-MMP-9/h-TIMP-1 complex, it would probably behave as a competitive inhibitor of this enzyme in the presence of bigger substrates.
as §4

T7 sequence (P14780 107-444 limits assumed): as above
T4 sequence (P41245 108-730): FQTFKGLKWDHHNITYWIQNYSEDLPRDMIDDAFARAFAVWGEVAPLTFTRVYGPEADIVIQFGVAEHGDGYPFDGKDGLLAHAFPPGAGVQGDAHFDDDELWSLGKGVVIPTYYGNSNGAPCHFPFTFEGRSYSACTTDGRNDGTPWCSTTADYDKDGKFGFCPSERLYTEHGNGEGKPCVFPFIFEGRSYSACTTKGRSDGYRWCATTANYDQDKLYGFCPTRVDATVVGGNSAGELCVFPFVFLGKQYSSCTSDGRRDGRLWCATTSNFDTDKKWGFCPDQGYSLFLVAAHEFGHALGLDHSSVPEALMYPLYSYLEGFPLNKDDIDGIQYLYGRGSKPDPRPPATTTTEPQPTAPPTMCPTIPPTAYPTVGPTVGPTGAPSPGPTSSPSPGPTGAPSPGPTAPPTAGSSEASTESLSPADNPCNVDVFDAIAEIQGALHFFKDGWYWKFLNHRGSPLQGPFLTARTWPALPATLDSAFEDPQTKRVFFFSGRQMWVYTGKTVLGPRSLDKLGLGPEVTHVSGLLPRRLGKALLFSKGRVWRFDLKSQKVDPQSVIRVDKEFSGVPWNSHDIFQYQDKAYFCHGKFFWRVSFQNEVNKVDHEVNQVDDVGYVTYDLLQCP
T2 sequence (P08253 110-446 limits assumed): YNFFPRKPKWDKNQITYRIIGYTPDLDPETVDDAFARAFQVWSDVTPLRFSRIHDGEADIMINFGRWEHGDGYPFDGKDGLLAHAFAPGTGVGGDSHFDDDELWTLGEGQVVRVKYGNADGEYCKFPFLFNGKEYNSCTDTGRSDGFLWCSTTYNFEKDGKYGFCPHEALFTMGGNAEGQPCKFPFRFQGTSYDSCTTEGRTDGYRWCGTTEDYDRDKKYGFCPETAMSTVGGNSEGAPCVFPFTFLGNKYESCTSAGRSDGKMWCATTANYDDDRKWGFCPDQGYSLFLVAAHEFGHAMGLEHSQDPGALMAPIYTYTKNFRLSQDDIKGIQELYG
h-MMP-9/h-TIMP-1 complex, sequence (P14780 107-444 limits assumed): as the sequence (P14780 107-444 limits assumed) above
h-MMP-9/h-TIMP-1 complex, sequence (P01033 24-207 partner): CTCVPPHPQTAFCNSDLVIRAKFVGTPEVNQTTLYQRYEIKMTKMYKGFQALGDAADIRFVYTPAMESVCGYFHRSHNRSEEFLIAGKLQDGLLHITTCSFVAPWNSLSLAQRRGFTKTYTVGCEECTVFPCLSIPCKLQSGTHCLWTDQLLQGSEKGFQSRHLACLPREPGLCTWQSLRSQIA
T6 sequence (P14780 20-707 limits assumed): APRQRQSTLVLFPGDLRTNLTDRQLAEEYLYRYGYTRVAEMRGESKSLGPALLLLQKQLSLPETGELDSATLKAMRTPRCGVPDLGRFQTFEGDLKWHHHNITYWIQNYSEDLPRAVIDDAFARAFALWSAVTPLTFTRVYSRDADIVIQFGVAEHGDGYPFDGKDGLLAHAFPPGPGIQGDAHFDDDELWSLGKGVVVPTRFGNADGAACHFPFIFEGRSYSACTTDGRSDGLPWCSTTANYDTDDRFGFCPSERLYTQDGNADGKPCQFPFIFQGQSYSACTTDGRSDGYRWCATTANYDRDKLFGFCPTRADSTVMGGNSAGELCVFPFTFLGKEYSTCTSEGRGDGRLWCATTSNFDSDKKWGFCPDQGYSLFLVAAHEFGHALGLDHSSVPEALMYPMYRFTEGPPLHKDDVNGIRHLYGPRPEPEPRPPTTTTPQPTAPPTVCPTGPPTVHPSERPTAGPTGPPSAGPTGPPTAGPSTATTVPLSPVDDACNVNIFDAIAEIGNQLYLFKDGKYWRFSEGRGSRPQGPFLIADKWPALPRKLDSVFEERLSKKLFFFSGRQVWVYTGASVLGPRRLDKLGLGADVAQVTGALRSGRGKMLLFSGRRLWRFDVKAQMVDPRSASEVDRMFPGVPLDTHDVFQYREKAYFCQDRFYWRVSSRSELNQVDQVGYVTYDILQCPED
T3 sequence (P33434 110-662): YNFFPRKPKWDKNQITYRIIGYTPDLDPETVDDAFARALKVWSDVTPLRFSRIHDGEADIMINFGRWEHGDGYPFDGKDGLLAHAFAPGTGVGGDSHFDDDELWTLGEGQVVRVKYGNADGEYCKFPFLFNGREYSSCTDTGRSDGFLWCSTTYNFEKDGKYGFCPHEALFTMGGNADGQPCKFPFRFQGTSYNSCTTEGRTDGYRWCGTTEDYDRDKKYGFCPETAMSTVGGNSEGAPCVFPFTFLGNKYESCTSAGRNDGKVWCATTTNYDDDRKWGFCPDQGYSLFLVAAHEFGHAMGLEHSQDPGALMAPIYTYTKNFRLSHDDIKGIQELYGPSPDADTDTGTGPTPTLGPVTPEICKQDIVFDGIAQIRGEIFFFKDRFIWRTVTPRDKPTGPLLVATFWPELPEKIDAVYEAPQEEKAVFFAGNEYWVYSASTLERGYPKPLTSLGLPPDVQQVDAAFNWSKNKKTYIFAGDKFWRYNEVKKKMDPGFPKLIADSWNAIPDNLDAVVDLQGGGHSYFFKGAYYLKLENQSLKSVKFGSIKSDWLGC
T5 sequence (P01033 24-207): as the sequence (P01033 24-207 partner) above

B1: M0076-D03: Fab that binds MMP-9 but does not inhibit (antibody, V domains shown)
VH: EVQLLESGGGLVQPGGSLRLSCAASGFTFSLYRMNWVRQAPGKGLEWVSYIGSSGGATAYADSVKGRFTISRDNSKNTLYLQMNSLRAEDTAVYYCARGAWYLDSWGQGTLVTVSS
VL: QDIQMTQSPSSLSASVGDRVTITCRASQGIRNDLDWYQQKPGTAPKRLIYSASNLQSGVPSRFSGSGSGTEFTLTISNLQPEDLATYFCLQHNSFPLTFGQGTKVEIK
competition with TIMP-1 (MMP-9 [1]): does not compete with TIMP-1 | dissociation t1/2 (MMP-9 [1]): 33 min | inhibition of the catalytic activity of MMP-9 (MMP-9 [2]): Neither antibody inhibits

B2: M0078-G07: Fab that binds MMP-9 but does not inhibit (antibody, V domains shown)
VH: EVQLLESGGGLVQPGGSLRLSCAASGFTFSSYTMEWVRQAPGKGLEWVSWISPSGGYTFYADSVKGRFTISRDNSKNTLYLQMNSLRAEDTALYYCARGYSYGSIDLWGRGTLVTVSS
VL: QDIQMTQSPGTLSVSPGERATLSCRASQSVSSDLAWYQHKPGQAPRLLIYGVSTKATGVPARFSGSGSGTEFTLTISSLQSEDLAVYYCQQYHNWPPLTFGGGTKVEIK
competition with TIMP-1 (MMP-9 [1]): does not compete with TIMP-1 | dissociation t1/2 (MMP-9 [1]): 25 min | inhibition of the catalytic activity of MMP-9 (MMP-9 [2]): Neither antibody inhibits

B3: M0279-A03: MMP-9 specific antibody from light chain shuffling of M237-D02, sFab (antibody, V domains shown)
VH: EVQLLESGGGLVQPGGSLRLSCAASGFTFSQYPMWWVRQAPGKGLEWVSYIVPSGGRTYYADSVKGRFTISRDNSKNTLYLQMNSLRAEDTAVYYCAKDRAYGDYVGWNGFDYWGQGTLVTVSS
VL: QDIQMTQSPATLSVSPGERVTLSCKASHSISRNLAWYQQKPGQAPRLLIFGASTRATGIPARFSGSGSGTEFTLTISSLEAEDFAVYYCQQRRNWPVTFGPGTKLDFK
inhibition of human MMP-2 (in words) (human MMP-2): do not inhibit | inhibition of mouse MMP-2 (in words) (mouse MMP-2): do not inhibit | inhibition of mouse MMP-9 (in words) (Mouse MMP-9): bind and inhibit | inhibition of human MMP-9 (in words) (MMP-9 [3]): bind and inhibit

B4: M0288-C08: MMP-9 specific antibody from light chain shuffling of M237-D02, sFab (antibody, V domains shown)
VH: EVQLLESGGGLVQPGGSLRLSCAASGFTFSQYPMWWVRQAPGKGLEWVSYIVPSGGRTYYADSVKGRFTISRDNSKNTLYLQMNSLRAEDTAVYYCAKDRAYGDYVGWNGFDYWGQGTLVTVSS
VL: QDIQMTQSPGTLSVSPGERVTLSCRASQSVSSYLAWYQQKPGQAPRLLIYGASTRVTGIPARFSGSGSGTEFTLTISSLQSEDFAVYYCQQRSSWPITFGQGTRLEIK
inhibition of human MMP-2 (in words) (human MMP-2): do not inhibit | inhibition of mouse MMP-2 (in words) (mouse MMP-2): do not inhibit | inhibition of mouse MMP-9 (in words) (Mouse MMP-9): bind and inhibit | inhibition of human MMP-9 (in words) (MMP-9 [3]): bind and inhibit

B5: M0166-F10: inhibitory MMP-9 binding antibody (hMMP-9 antibody inhibitor) (antibody, V domains shown)
VH: EVQLLESGGGLVQPGGSLRLSCAASGFTFSPYLMNWVRQAPGKGLEWVSSIYSSGGGTGYADSVKGRFTISRDNSKNTLYLQMNSLRAEDTAVYYCARIYHSSSGPFYGMDVWGQGTTVTVSS
VL: QSELTQPPSASAAPGQRVTISCSGSSSNIGSNTVTWYQKLPGTAPKLLIYNNYERPSGVPARFSGSKSGTSASLAISGLQSEDEADYYCATWDDSLIANYVFGSGTKVTVLGQPKANP
binding of huTIMP-1 (human TIMP-1): No | binding of Pro-huMMP-9 (human pro-MMP-9): observed neither | binding of Pro-huMMP-9 (human pro-MMP-9; listed as 539A-M0166F10): ~No | binding of Cat-huMMP-9 ([4]; Direct capture (amine coupling)): binds | binding of Cat-huMMP-9 ([4]; Direct capture (amine coupling), listed as 539A-M0166F10): Yes | binding of Cat-huMMP-9 ([4]; Fc capture (anti-Fc antibody surface)): binds | binding of Cat-huMMP-9 ([4]; Fc capture (anti-Fc antibody surface), listed as 539A-M0166F10): Yes | binding of huTIMP-1/cat-huMMP-9 (h-MMP-9/h-TIMP-1 complex): no binding was observed | binding of huTIMP-1/cat-huMMP-9 (h-MMP-9/h-TIMP-1 complex; listed as 539A-M0166F10): No
